PMC3567400 (Biochemistry, 2013)

Molecular target: the molecule itself
Assay: crystal structure

B1: LnmK (Tyr62Phe) (enzyme, Streptomyces atroolivaceus S-140, UniProt Q8GGP1 2-319, looked up)
chain: SITSSLDVRPEIKQAVTVRPGMCGPGSLFVGQLGDWTWETVSAQCDTDVFAARDASGNPTFLAFYYFRVRGGRELHPGSLTFGDRLTVTSGCYDQGTESVLTLHRIDRAGSDDAQRPLDLHEFYERPRDGSLYVENFNRWVTRSAPGSNEDLVKSSPPGFRNDGLPQLPAAYSPRAVYREARTAHTFRALDEPGFRLLPDTVEVEHPVDIVRDVNGVGLLYFASYFSMVDKAALALWRRLGRSDRAFLRRVVVDQQMCYLGNADLDSVLTLGARVRVSTETPGEELVDVVISDRDSGRVIAVSTLHTQHDAHDPKGEA
- binding result: binds
